This note sets out measurements from PMC4695125.

In test [1] the target is RAGE (receptor for advanced glycation end products), endogenous in MDA-MB-231 cells (human (endogenous in MDA-MB-231)) (UniProt Q15109).
Test [2] has the same target. The source holds these as a separate data set.

Chain of UniProt Q15109 (Q15109 23-404): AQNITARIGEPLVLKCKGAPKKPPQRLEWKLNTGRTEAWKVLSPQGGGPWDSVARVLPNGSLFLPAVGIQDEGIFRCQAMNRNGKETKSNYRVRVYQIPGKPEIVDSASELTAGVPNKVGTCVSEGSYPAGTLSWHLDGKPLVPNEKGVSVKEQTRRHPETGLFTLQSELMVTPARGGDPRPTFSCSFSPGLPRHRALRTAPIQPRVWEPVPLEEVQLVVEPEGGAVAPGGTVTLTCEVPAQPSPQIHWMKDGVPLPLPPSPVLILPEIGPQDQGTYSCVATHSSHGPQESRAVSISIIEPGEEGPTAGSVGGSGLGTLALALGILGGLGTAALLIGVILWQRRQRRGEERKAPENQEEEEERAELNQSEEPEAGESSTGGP

In turn, “secreted acetylated APE1/Ref-1 from ASA/TSA-treated MDA-MB-231 cells (from UniProt P27695 1-318) (natural protein)” gave a phosphorylation of p38 MAPK at Tyr182 in MDA-MB-231 cells treated with 5 mM ASA (3 h to 24 h) in test [1] of 62%.
Take “recombinant human acetylated APE1/Ref-1 (apurinic apyrimidinic endonuclease 1/redox factor-1) (from UniProt P27695 1-318) (natural protein)”: in test [2], the cell viability of ASA-pretreated MDA-MB-231 cells after removal of Ac-APE1/Ref-1 with an anti-APE1/Ref-1 antibody (2 ug) amounted to 80% and the cytoplasmic histone-associated DNA fragmentation in ASA-pretreated MDA-MB-231 cells after removal of Ac-APE1/Ref-1 with an anti-APE1/Ref-1 antibody (2 ug) (% of the control level) was 33.
